Measured values: the nanobody polyreactivity screen of Harvey et al. (2022)

Assay: yeast display, Sf9 membrane polyspecificity reagent, FACS + sequencing; frameworks hold sequencing errors
Outline: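 Nanobodies came from a synthetic yeast display library in Saccharomyces cerevisiae BJ5465, induced with galactose for 36–48 hours and stained for 1 hour at 4 °C with 10% biotinylated, detergent-solubilized Sf9 membrane reagent. Cells were enriched on streptavidin microbeads and then FACS-sorted, with low and high (top ~1%) gates set on anti-HA fluorescence for expression and streptavidin fluorescence for reagent binding. Each polyreactivity label reflects the gate a clone came from. Genes were amplified by colony PCR, sequenced by MiSeq 2 × 250 and filtered by CDR length.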

Sequence	polyreactivity (PSR sort gate)
QVQLVESGGGLVQAGGSLRLSCAASGFTFWSYAMGWYRQAPGKERELVAAISRNGGRTYYADSVKGRFTISRDNAKNTVYVQMNSLKPEDTAVYYCATRARNRYTEMDYWGQGTQVTVSS	high polyreactivity
QVQLVESGGGLVQAGGSLRLSCAASGFTFWSYAMGWYRQAPGKERELVAAISSSGDSTYYADSVKGRFTISRDNAKNTVYLQMNSLKPEDTAVYYCAAGTHTDYGRYYYWGQGTQVTVSS	low polyreactivity
QVQLVESGGGLVQAGGSLRLSCAASGFTFWTYAMGWYRQAPGKERELVAAISTSGGSTYYADSVKGRFTISRDNAKNTVYLQINSLKPEDTAVYYCAAYAIGEHFRARYGYWGQGTQVTVSS	high polyreactivity
QVQLVESGGGLVQAGGSLRLSCAASGFTFWTYAMGWYRQAPGKERELVAAITGIGGSTYYADSVKGRFTISRDNAKNTVYLQMNSLKPEDTAVYYCAARYQATYPSMGYWGQGTQVTVSS	low polyreactivity
QVQLVESGGGLVQAGGSLRLSCAASGFTFWVYAMGWYRQAPGKERELVADISSGGSTNYADSVKGRFTISRDNAKNTVYLQMNSLKPEDTAVYYCATYRARWTWYTRYDYWGQGTQVTVSS	high polyreactivity
QVQLVESGGGLVQAGGSLRLSCAASGFTFWYYAMGCYRQAPGKERELVPSISSIGGSTYYADSVKGRFTISRDNAKYTVYLQMNSLKPEDTAVYYCAARYKFLRGGVRRDYLGQGTQVTVSS	high polyreactivity
QVQLVESGGGLVQAGGSLRLSCAASGFTFWYYAMGWYRPAPGNERELVASISRTGGTTYYADSVKGRFTISRDNAKNTVDLQMTSLKPEDTAVYYCNARPKVYDREYDYWGQGTQVTVSS	high polyreactivity
QVQLVESGGGLVQAGGSLRLSCAASGFTFWYYAMGWYRQAPGKERELVAAITYNGDRTYYADSVKGRFTISRDNAKNTVYLQMNSLKPEDTAVYYCAAAFVSVRKRYGYWGQGTQVTVSS	high polyreactivity
QVQLVESGGGLVQAGGSLRLSCAASGFTFWYYAMGWYRQAPGKERELVASISSIGGSTYYADSVKGRFTISRDNAKNTVYLQMNSLKPEDTAVYYCAARYKFLRGGVRRDYWGQGTQVTVSS	high polyreactivity
QVQLVESGGGLVQAGGSLRLSCAASGFTFWYYTMGWYRQAPGKERELVAAITGRGGTTHYADSVKGRFTISRDNAKNTVYLQMNSLKPEDTAVYYCAARAYRPSLSVVRGGYWGQGTQVTVLS	high polyreactivity
QVQLVESGGGLVQAGGSLRLSCAASGFTFYAYAMGWYRQAPGKERELVAVISWSGGSTYYADSVKGRFTISRDNAKNTVYLQMNSLKPEDTAVYYCAADSLESYPDYEYDYWGQGTQVTVSS	low polyreactivity
QVQLVESGGGLVQAGGSLRLSCAASGFTFYAYVMGWYRQAPGKERELVAAISGSGTSTYYADSVKGRFTISRDNAKNTVYLQMNSLKPEDTAVYYCAADYYPWDLDDDYWGQGTQVTVSS	high polyreactivity
QVQLVESGGGLVQAGGSLRLSCAASGFTFYDNAMGWYRQAPGKERELVAAINWRSGSTYYADSVKGRFTISRDNAKNTVYLQMNSLKPEDTAVYYCAAGLVFHYYAPKSYYLGYDYWGQGTQVTVSS	low polyreactivity
QVQLVESGGGLVQAGGSLRLSCAASGFTFYDNAMGWYRQAPGKERELVAAISWGGGSTYYADSVKGRFTISRDNAKNTVYLQMNSLKPEDTAVYYCNVYYGRVLLGFYYWGQGTQVTVSS	low polyreactivity
QVQLVESGGGLVQAGGSLRLSCAASGFTFYEYAMGWYRQAPGKERELVAAINRRGGRTYYADSVKGRFTISRDNAKNTVYLQMNSLKPEDTAVYYCNTPVSDGGHYYSWGQGTQVTVSS	high polyreactivity
QVQLVESGGGLVQAGGSLRLSCAASGFTFYEYSMGWYRQAPGKERELVAAINWNGGRTYYADSVKGRFTISRDNAKNTVYLQMNSLKPEDTAVYYCAARVAPKTKIYRRYYWGQGTQVTVSS	high polyreactivity
QVQLVESGGGLVQAGGSLRLSCAASGFTFYFYAMGWYRQAPGKERELVAAITGGTSTYYADSVKGRFTISRDNAKNTVYFQRNSLKPEDTSVYYCAAGYLDVLWLLDLLQLYGYWGQGNQVTVSS	low polyreactivity
QVQLVESGGGLVQAGGSLRLSCAASGFTFYFYAMGWYRQAPGKERELVATITIGGRTNYADSVKGRFTISRDNAKNTVYLQMNSLKPEDTAVYYCAAAYLWISRYSGYDYWGQGTQVTVSS	high polyreactivity
QVQLVESGGGLVQAGGSLRLSCAASGFTFYFYAMGWYRQAPGKETELVAGISRGGSTTYADSVTGRFTISRDNAKNTVYLQRNSLKPHDTAVYYCAVGYDIVRYSYSPFYRYDYWGQGTQVTVSS	low polyreactivity
QVQLVESGGGLVQAGGSLRLSCAASGFTFYGNALGWYRQAPGKARELVAAISRSGGSTYYADSVKGRFTISRDNAKNTVYLQMNSLKPDDTAVYYCAVYVRKWYAVTDQYSGSDYWGQGTQVTVSS	high polyreactivity
QVQLVESGGGLVQAGGSLRLSCAASGFTFYGYAMGWYRQAPGKERELVAGISKNGGSTYYADSVKGRFTISRDNAKNTVYLQMNSLKPEDTAVYYCNKRSTLNTRRDYWGQGTQVTVSS	high polyreactivity
QVQLVESGGGLVQAGGSLRLSCAASGFTFYGYAMGWYRQAPGKERELVAGITSGGRTYYADSVKGRFTISRDNAKNTVYLQMNSLKPEDTAVYYCAARRITWGRFDYWGQGTQVTVSS	high polyreactivity

Sequence	polyreactivity (PSR sort gate)
QVQLVESGGGLVQAGGSLRLSCAASGFTFYGYVMGWSRQAPGKERDLVAAITRGGNTYYADSVKGRITISRDNAKNTVYLQMNSLKPEDTAVYYCARDRSYWDKPRQRDGYWGQGTQVTVSS	low polyreactivity
QVQLVESGGGLVQAGGSLRLSCAASGFTFYHNAMGWYRQAPGKERELVAAISSSGDSTYYADSVKGRFTIARDNAKNTVYLQMNSLKPEDTAVYYCNDYFYYLSQYYYYWFNYDYWGQGTQVTVSS	low polyreactivity
QVQLVESGGGLVQAGGSLRLSCAASGFTFYHNAMGWYRQATGKERELVATITARGGRTYYADSVKGRFTISRDNAKNTVYLQMNSLKPVDTAVYYCNVKASRGYTYEYDYWGQGTQVTVSS	high polyreactivity
QVQLVESGGGLVQAGGSLRLSCAASGFTFYIYAMGWYRQAPGKERELVASISARGGSTYYADSVKGRFTISRDNAKNTVYLQMNSLKPEDTAVYYCNALYNYAEIYGRGYWGQGTQVTVSS	high polyreactivity
QVQLVESGGGLVQAGGSLRLSCAASGFTFYKNTMGWYRQAPGKERELVAAISYRGGTYYADSVKGRFTISRDNAKNTVYLQMNSLKPQDTAVYYCNARYRGKYSSYGYWGQGTQVTVSS	high polyreactivity
QVQLVESGGGLVQAGGSLRLSCAASGFTFYKYVMGWYRPAPGKERELVAAITTSGGSTYYADSVKGRFTISRDNAKNTVYLQMNCLKPEDTAVYYCNARSLHTSEGDYWGQGTQVTVSS	low polyreactivity
QVQLVESGGGLVQAGGSLRLSCAASGFTFYLYAMGWYRQAPGKERELVAAISSRGGTTYYADSVKGRFTISRDNAKNTVYLQMNSLKPEDTAVYYCNVARVYHIYDYWGQGTQVTVSS	high polyreactivity
QVQLVESGGGLVQAGGSLRLSCAASGFTFYLYAMGWYRQAPGKERELVAAITYSAGSTYYADSVKGRFTISRDNAKNTVYLQMNSLKPEDTAVYYCAKRGHYRAWGGGGYWGQGTQVTVSS	low polyreactivity
QVQLVESGGGLVQAGGSLRLSCAASGFTFYNNAMGGYRQAPGKERELVAVITSNGGRTYYADSVKGRFTISRDNAKNTVYLQMNSLKPEDTAVYYCAKRGYGYGDGAYYYWGQGTQVTVSS	low polyreactivity
QVQLVESGGGLVQAGGSLRLSCAASGFTFYNNAMGWYRQAPGKERELVAGIARRGGSTSYADSVKGRFTISRDNAKNSVYLQMNSLKPEDTEVYYCAKQDYSPYYPYDYWGLGTQVTVSS	high polyreactivity
QVQLVESGGGLVQAGGSLRLSCAASGFTFYNYAKGWYIQAPGNERELVAAITSRGGSTYYADSVKGRFTISRDNAKNTVYLQMNSLKPEDTAVYYCAAGYVHYGWFELDYWGQGTQVTVSS	low polyreactivity
QVQLVESGGGLVQAGGSLRLSCAASGFTFYNYAMGWYRQAPGKERELVAAITSRGGSTYYADSVKGRFTISRDNAKNTVYLQMNSLKPEDTAVYYCNAVAKLYYWRYDYWGQGTQVTVSS	low polyreactivity
QVQLVESGGGLVQAGGSLRLSCAASGFTFYPNAMGWYRQAPGNERELVATITGSGGSTNYADSVKGRFTISRDTAKNTVYLHMNRLKPEDTAVYYCAADYAVYSFTEFNYWGQVTQVTVSS	high polyreactivity
QVQLVESGGGLVQAGGSLRLSCAASGFTFYPYAMGWYRQAPGKERELVASFTSAGGTNYADSVKGRFTISRDNAKNTVYLQMNSLKPEDTAVYYCAAKYRSRGPDYYFKSDYWGQGTQVTVSS	low polyreactivity
QVQLVESGGGLVQAGGSLRLSCAASGFTFYPYAMGWYRQAPGKERELVASITSAGGTNYADSVKGRFTISRDNAKNTVYLQMNSLKPEDTAVYYCAAKYRSRGPDYYFKSDYWGQGTQVTVSS	low polyreactivity
QVQLVESGGGLVQAGGSLRLSCAASGFTFYPYSMGWYRQAPGKERELVAAIRGSGGSTHYADSVKGRFTISRDNAKNTVYLQMNSLKPEDTAVYYCAARIRGYRQYGTYYYWGQGTQVTVSS	high polyreactivity
QVQLVESGGGLVQAGGSLRLSCAASGFTFYQYAMGWYRQAPGKERELVAAITWNGGSTFYADSVKGRFTISRDNAKNTVYLQMNSLKPEDTAVYYCAARQYFSSYYEYDYWGQGTQVTVSS	high polyreactivity
QVQLVESGGGLVQAGGSLRLSCAASGFTFYQYTMGRYRQAPGKERELVATITSDGGTNYADSVKGRFTISRDNAKNTVYLQMNSLKPEDTAVYYCARDYLSPYAVDYWGQGTQVTVSS	low polyreactivity
QVQLVESGGGLVQAGGSLRLSCAASGFTFYRNAMGWSRKAPGKERELVAAISTSGGSTHYADSVKGRFTISRDNAKNTVYLQMNSLKPEDTAVYYCAKRRSIRDEFGYWGQGTQVTVSS	high polyreactivity
QVQLVESGGGLVQAGGSLRLSCAASGFTFYRNAMGWYRQAPGKERELVAAISRGGRTYYADSVKGRFTISRDNAKNTVYLQMNSLKQEDTAVYYCAADFYIKYSEFDYWGQGTQVTVSS	high polyreactivity
QVQLVESGGGLVQAGGSLRLSCAASGFTFYRNAMGWYRQAPGKERELVAAITRRGGSTYYADSVKGRFTISRDNAKNTVYLQMISLKPEDTAVYYCSKSYRFPSVGPPGELDYWGQGTQVTVSS	high polyreactivity
